Data as given in US20230265151A1, “GIP/GLP1 CO-AGONIST COMPOUNDS” (priority 2020, published 2023).
*1 amine or outer side, *2 acyl side, *3 side chain or, on linkers, in order; H or OH if unused. Where no end group is shown, it is not given here. Side-chain parts run from the residue outwards. [ ]: non-standard residue; d: D form. The star is where a group is joined. Butanoyl(4-(4-tBuPh)) = CC(C)(C)c1ccc(CCCC(=O)*)cc1; αMePhe(2-F) = C[C@](N)(Cc1ccccc1F)C(=O)O; γGlu = O=C(O)[C@H](CCC(=O)[*:2])N[*:1]; C14 diacid = O=C(O)CCCCCCCCCCCCC(=O)*; εLys = N[C@@H](CCCCN[*:1])C(=O)[*:2]; αMeY = C[C@](N)(Cc1ccc(O)cc1)C(=O)O; αMeF = C[C@](N)(Cc1ccccc1)C(=O)O; αMeL = CC(C)C[C@](C)(N)C(=O)O; Lauroyl = CCCCCCCCCCCC(=O)*; Orn = NCCC[C@H](N)C(=O)O; AEEA = NCCOCCOCC(=O)O; Aib = CC(C)(N)C(=O)O

B1: Y-Aib-EGT-αMeF(2F)-TSD-4Pal-SI-αMeL-LD-Orn-K((2-[2-(2-Amino-ethoxy)-ethoxy]-acetyl)2-(γ-Glu)-CO-(CH2)12-CO2H)AQ-Aib-EFI-(D-Glu)-αMeY-LIEGGK((2-[2-(2-Amino-ethox … (peptide)
peptide: YXEGTXTSDXSIXLDXKAQXEFIXXLIEGGKSSGAPPPS
modifications: Aib2, αMeF(2F)6, 4Pal10, αMeL13, Orn16, Aib20, D-Glu24, αMeY25; acylated K17, K31 (groups as in name); C-terminal amide
B2: Y-Aib-EGT-αMeF(2F)-TSD-4Pal-SI-αMeL-LD-Orn-K((2-[2-(2-Amino-ethoxy)-ethoxy]-acetyl)2-(γ-Glu)-CO-(CH2)10-CO2H)AQ-Aib-EFI-(D-Glu)-αMeY-LIEGGK((2-[2-(2-Amino-ethox … (peptide)
peptide: YXEGTXTSDXSIXLDXKAQXEFIXXLIEGGKSSGAPPPS
modifications: Aib2, αMeF(2F)6, 4Pal10, αMeL13, Orn16, Aib20, D-Glu24, αMeY25; acylated K17, K31 (groups as in name); C-terminal amide
B3: Example 165 (peptide)
peptide: Y[Aib]EGT[αMePhe(2-F)]TSDV[Aib]I[αMeL]LD[Orn]K([εLys-εLys-γGlu-C14 diacid])AQ[Aib]EFI[dE][αMeY]LIEGGK([εLys-εLys-γGlu-C14 diacid])SSGAPPPS-NH2
modifications: N-terminus assumed
SMILES: CC[C@H](C)[C@H](NC(=O)[C@H](CC(C)C)NC(=O)[C@](C)(Cc1ccc(O)cc1)NC(=O)[C@@H](CCC(=O)O)NC(=O)[C@@H](NC(=O)[C@H](Cc1ccccc1)NC(=O)[C@H](CCC(=O)O)NC(=O)C(C)(C)NC(=O)[C@H](CCC(N)=O)NC(=O)[C@H](C)NC(=O)[C@H](CCCCNC(=O)[C@@H](N)CCCCNC(=O)[C@@H](N)CCCCNC(=O)CC[C@H](NC(=O)CCCCCCCCCCCCC(=O)O)C(=O)O)NC(=O)[C@H](CCCN)NC(=O)[C@H](CC(=O)O)NC(=O)[C@H](CC(C)C)NC(=O)[C@](C)(CC(C)C)NC(=O)[C@@H](NC(=O)C(C)(C)NC(=O)[C@@H](NC(=O)[C@H](CC(=O)O)NC(=O)[C@H](CO)NC(=O)[C@@H](NC(=O)[C@](C)(Cc1ccccc1F)NC(=O)[C@@H](NC(=O)CNC(=O)[C@H](CCC(=O)O)NC(=O)C(C)(C)NC(=O)[C@@H](N)Cc1ccc(O)cc1)[C@@H](C)O)[C@@H](C)O)C(C)C)[C@@H](C)CC)[C@@H](C)CC)C(=O)N[C@@H](CCC(=O)O)C(=O)NCC(=O)NCC(=O)N[C@@H](CCCCNC(=O)[C@@H](N)CCCCNC(=O)[C@@H](N)CCCCNC(=O)CC[C@H](NC(=O)CCCCCCCCCCCCC(=O)O)C(=O)O)C(=O)N[C@@H](CO)C(=O)N[C@@H](CO)C(=O)NCC(=O)N[C@@H](C)C(=O)N1CCC[C@H]1C(=O)N1CCC[C@H]1C(=O)N1CCC[C@H]1C(=O)N[C@@H](CO)C(N)=O
B4: Example 176 (peptide)
peptide: Y[Aib]EGT[αMeF]TSDV[Aib]I[αMeL]LD[Orn]K([AEEA-AEEA-γGlu-Lauroyl])AQ[Aib]EFI[dE][αMeY]LIEGGK([AEEA-AEEA-γGlu-Lauroyl])SSGAPPPS-NH2
modifications: N-terminus assumed
SMILES: CCCCCCCCCCCC(=O)N[C@@H](CCC(=O)NCCOCCOCC(=O)NCCOCCOCC(=O)NCCCC[C@H](NC(=O)CNC(=O)CNC(=O)[C@H](CCC(=O)O)NC(=O)[C@@H](NC(=O)[C@H](CC(C)C)NC(=O)[C@](C)(Cc1ccc(O)cc1)NC(=O)[C@@H](CCC(=O)O)NC(=O)[C@@H](NC(=O)[C@H](Cc1ccccc1)NC(=O)[C@H](CCC(=O)O)NC(=O)C(C)(C)NC(=O)[C@H](CCC(N)=O)NC(=O)[C@H](C)NC(=O)[C@H](CCCCNC(=O)COCCOCCNC(=O)COCCOCCNC(=O)CC[C@H](NC(=O)CCCCCCCCCCC)C(=O)O)NC(=O)[C@H](CCCN)NC(=O)[C@H](CC(=O)O)NC(=O)[C@H](CC(C)C)NC(=O)[C@](C)(CC(C)C)NC(=O)[C@@H](NC(=O)C(C)(C)NC(=O)[C@@H](NC(=O)[C@H](CC(=O)O)NC(=O)[C@H](CO)NC(=O)[C@@H](NC(=O)[C@](C)(Cc1ccccc1)NC(=O)[C@@H](NC(=O)CNC(=O)[C@H](CCC(=O)O)NC(=O)C(C)(C)NC(=O)[C@@H](N)Cc1ccc(O)cc1)[C@@H](C)O)[C@@H](C)O)C(C)C)[C@@H](C)CC)[C@@H](C)CC)[C@@H](C)CC)C(=O)N[C@@H](CO)C(=O)N[C@@H](CO)C(=O)NCC(=O)N[C@@H](C)C(=O)N1CCC[C@H]1C(=O)N1CCC[C@H]1C(=O)N1CCC[C@H]1C(=O)N[C@@H](CO)C(N)=O)C(=O)O
B5: Example 178 (peptide)
peptide: Y[Aib]EGT[αMeF]TSDV[Aib]I[αMeL]LD[Orn]K([AEEA-AEEA-γGlu-Butanoyl(4-(4-tBuPh))])AQ[Aib]EFI[dE][αMeY]LIEGGK([AEEA-AEEA-γGlu-Butanoyl(4-(4-tBuPh))])SSGAPPPS-NH2
modifications: N-terminus assumed
SMILES: CC[C@H](C)[C@H](NC(=O)[C@H](CC(C)C)NC(=O)[C@](C)(Cc1ccc(O)cc1)NC(=O)[C@@H](CCC(=O)O)NC(=O)[C@@H](NC(=O)[C@H](Cc1ccccc1)NC(=O)[C@H](CCC(=O)O)NC(=O)C(C)(C)NC(=O)[C@H](CCC(N)=O)NC(=O)[C@H](C)NC(=O)[C@H](CCCCNC(=O)COCCOCCNC(=O)COCCOCCNC(=O)CC[C@H](NC(=O)CCCc1ccc(C(C)(C)C)cc1)C(=O)O)NC(=O)[C@H](CCCN)NC(=O)[C@H](CC(=O)O)NC(=O)[C@H](CC(C)C)NC(=O)[C@](C)(CC(C)C)NC(=O)[C@@H](NC(=O)C(C)(C)NC(=O)[C@@H](NC(=O)[C@H](CC(=O)O)NC(=O)[C@H](CO)NC(=O)[C@@H](NC(=O)[C@](C)(Cc1ccccc1)NC(=O)[C@@H](NC(=O)CNC(=O)[C@H](CCC(=O)O)NC(=O)C(C)(C)NC(=O)[C@@H](N)Cc1ccc(O)cc1)[C@@H](C)O)[C@@H](C)O)C(C)C)[C@@H](C)CC)[C@@H](C)CC)C(=O)N[C@@H](CCC(=O)O)C(=O)NCC(=O)NCC(=O)N[C@@H](CCCCNC(=O)COCCOCCNC(=O)COCCOCCNC(=O)CC[C@H](NC(=O)CCCc1ccc(C(C)(C)C)cc1)C(=O)O)C(=O)N[C@@H](CO)C(=O)N[C@@H](CO)C(=O)NCC(=O)N[C@@H](C)C(=O)N1CCC[C@H]1C(=O)N1CCC[C@H]1C(=O)N1CCC[C@H]1C(=O)N[C@@H](CO)C(N)=O
B6: Example 180 (peptide)
peptide: Y[Aib]EGT[αMeF]TSDV[Aib]I[αMeL]LD[Orn]K([AEEA-AEEA-γGlu-C14 diacid])AQ[Aib]EFI[dE][αMeY]LIEGGK([AEEA-AEEA-γGlu-C14 diacid])SSGAPPPS-NH2
modifications: N-terminus assumed
SMILES: CC[C@H](C)[C@H](NC(=O)[C@H](CC(C)C)NC(=O)[C@](C)(Cc1ccc(O)cc1)NC(=O)[C@@H](CCC(=O)O)NC(=O)[C@@H](NC(=O)[C@H](Cc1ccccc1)NC(=O)[C@H](CCC(=O)O)NC(=O)C(C)(C)NC(=O)[C@H](CCC(N)=O)NC(=O)[C@H](C)NC(=O)[C@H](CCCCNC(=O)COCCOCCNC(=O)COCCOCCNC(=O)CC[C@H](NC(=O)CCCCCCCCCCCCC(=O)O)C(=O)O)NC(=O)[C@H](CCCN)NC(=O)[C@H](CC(=O)O)NC(=O)[C@H](CC(C)C)NC(=O)[C@](C)(CC(C)C)NC(=O)[C@@H](NC(=O)C(C)(C)NC(=O)[C@@H](NC(=O)[C@H](CC(=O)O)NC(=O)[C@H](CO)NC(=O)[C@@H](NC(=O)[C@](C)(Cc1ccccc1)NC(=O)[C@@H](NC(=O)CNC(=O)[C@H](CCC(=O)O)NC(=O)C(C)(C)NC(=O)[C@@H](N)Cc1ccc(O)cc1)[C@@H](C)O)[C@@H](C)O)C(C)C)[C@@H](C)CC)[C@@H](C)CC)C(=O)N[C@@H](CCC(=O)O)C(=O)NCC(=O)NCC(=O)N[C@@H](CCCCNC(=O)COCCOCCNC(=O)COCCOCCNC(=O)CC[C@H](NC(=O)CCCCCCCCCCCCC(=O)O)C(=O)O)C(=O)N[C@@H](CO)C(=O)N[C@@H](CO)C(=O)NCC(=O)N[C@@H](C)C(=O)N1CCC[C@H]1C(=O)N1CCC[C@H]1C(=O)N1CCC[C@H]1C(=O)N[C@@H](CO)C(N)=O
B7: Example 175 (peptide)
peptide: Y[Aib]EGT[αMePhe(2-F)]TSDV[Aib]I[αMeL]LD[Orn]K([AEEA-AEEA-γGlu-Lauroyl])AQ[Aib]EFI[dE][αMeY]LIEGGK([AEEA-AEEA-γGlu-Lauroyl])SSGAPPPS-NH2
modifications: N-terminus assumed
SMILES: CCCCCCCCCCCC(=O)N[C@@H](CCC(=O)NCCOCCOCC(=O)NCCOCCOCC(=O)NCCCC[C@H](NC(=O)CNC(=O)CNC(=O)[C@H](CCC(=O)O)NC(=O)[C@@H](NC(=O)[C@H](CC(C)C)NC(=O)[C@](C)(Cc1ccc(O)cc1)NC(=O)[C@@H](CCC(=O)O)NC(=O)[C@@H](NC(=O)[C@H](Cc1ccccc1)NC(=O)[C@H](CCC(=O)O)NC(=O)C(C)(C)NC(=O)[C@H](CCC(N)=O)NC(=O)[C@H](C)NC(=O)[C@H](CCCCNC(=O)COCCOCCNC(=O)COCCOCCNC(=O)CC[C@H](NC(=O)CCCCCCCCCCC)C(=O)O)NC(=O)[C@H](CCCN)NC(=O)[C@H](CC(=O)O)NC(=O)[C@H](CC(C)C)NC(=O)[C@](C)(CC(C)C)NC(=O)[C@@H](NC(=O)C(C)(C)NC(=O)[C@@H](NC(=O)[C@H](CC(=O)O)NC(=O)[C@H](CO)NC(=O)[C@@H](NC(=O)[C@](C)(Cc1ccccc1F)NC(=O)[C@@H](NC(=O)CNC(=O)[C@H](CCC(=O)O)NC(=O)C(C)(C)NC(=O)[C@@H](N)Cc1ccc(O)cc1)[C@@H](C)O)[C@@H](C)O)C(C)C)[C@@H](C)CC)[C@@H](C)CC)[C@@H](C)CC)C(=O)N[C@@H](CO)C(=O)N[C@@H](CO)C(=O)NCC(=O)N[C@@H](C)C(=O)N1CCC[C@H]1C(=O)N1CCC[C@H]1C(=O)N1CCC[C@H]1C(=O)N[C@@H](CO)C(N)=O)C(=O)O

Columns and labels:
Assay in all cases: cell-based or functional assay
[1] = biological target: T1, human glucose-dependent insulinotropic polypeptide (GIP) receptor (human, UniProt P48546 22-466)
T1 sequence (looked up): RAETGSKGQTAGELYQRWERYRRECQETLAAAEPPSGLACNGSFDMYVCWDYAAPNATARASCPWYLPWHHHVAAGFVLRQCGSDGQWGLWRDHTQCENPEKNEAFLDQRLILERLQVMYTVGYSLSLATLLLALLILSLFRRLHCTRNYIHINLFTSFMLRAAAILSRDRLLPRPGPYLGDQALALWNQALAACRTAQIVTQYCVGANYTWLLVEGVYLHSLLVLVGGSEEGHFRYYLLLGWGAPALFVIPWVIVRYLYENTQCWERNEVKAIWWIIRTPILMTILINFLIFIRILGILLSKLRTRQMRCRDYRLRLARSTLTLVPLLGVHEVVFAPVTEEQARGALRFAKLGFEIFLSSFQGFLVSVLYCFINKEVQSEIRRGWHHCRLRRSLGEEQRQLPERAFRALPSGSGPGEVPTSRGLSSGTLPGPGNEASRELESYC

[2] = biological target: human glucagon-like peptide-1 (GLP-1) receptor (human, UniProt P43220 24-463)
[3] = biological target: human glucagon receptor (human, UniProt P47871 26-477)

| Binder | cAMP EC50 [1] [nM] | cAMP Emax [1] [%] | cAMP EC50 [2] [nM] | cAMP EC50 (1.0% HSA) [3] [nM] | cAMP Emax [2] [%] |
| --- | --- | --- | --- | --- | --- |
| Y[Aib]EGT[αMePhe(2-F)]TSDV[Aib]I[αMeL]LD[Orn]K([AEEA-AEEA-γGlu-Butanoyl(4-(4-tBuPh))])AQ[Aib]EFI[dE][αMeY]LIEGGK([AEEA-AEEA-γGlu-Butanoyl(4-(4-tBuPh))])SSGAPPPS-NH2 [Example 177] | 0.0433 | 113 | 0.178 | – | – |
| B1 | – | – | – | > 9950 | – |
| B2 | – | – | – | > 9950 | – |
| B3 | 0.0442 | 96.1 | 0.291 | – | – |
| B4 | 0.0485 | 89.3 | 0.298 | – | – |
| B5 | 0.11 | 105 | 0.22 | – | – |
| B6 | 0.224 | 86.8 | 0.26 | – | – |
| B7 | 0.0337 | 100 | 0.227 | – | 91.1 |
